Data taken from US20240238439A1 (HUMMINGBIRD BIOSCIENCE PTE, published 2024).

What was measured:
Experiment in all cases: SPR (Biacore T200), His-captured receptor on CM5 chip, ADC as analyte
[1] = target: T1, His-tagged recombinant human FcγRIA (human, UniProt P12314 16-288, limits assumed)
T1 construct: Captured on a CM5 chip by the Biacore HIS capture kit; also called human FCγRIA (CD64); not shown: His tag
Experimental: (§1) ADCs described in Example 2 were analysed for their ability to bind to human Fcγ receptors by surface plasmon resonance using Biacore.
(§2) Briefly, a Biacore HIS capture kit (Cytivia, Cat. #28995056) was employed to immobilize His-tagged recombinant human Fcγ receptor ligand (FcγRIA, FcγRIIA or FcγRIIIA) onto the surface of a CM5 sensor chip. […] Data capture and analysis were preformed using Biacore T200 according to manufacturer's recommendations for analyzing high-affinity antigen-antibody kinetics. Responses from all steps were reference cell-subtracted, and zero concentration-corrected to normalize for systematic disturbances. The resulting association and dissociation curves were fitted with 1:1 global fitting to obtain values for association rate (ka), dissociation rate (kd), and the equilibrium dissociation constant (KD).

[2] = target: T2, His-tagged recombinant human FcγRIIA (human, UniProt P12318 34-217, limits assumed)
T2 construct: Captured on a CM5 chip by the Biacore HIS capture kit; also called human FCγRIIA (CD32a); not shown: His tag
T2 sequence (looked up): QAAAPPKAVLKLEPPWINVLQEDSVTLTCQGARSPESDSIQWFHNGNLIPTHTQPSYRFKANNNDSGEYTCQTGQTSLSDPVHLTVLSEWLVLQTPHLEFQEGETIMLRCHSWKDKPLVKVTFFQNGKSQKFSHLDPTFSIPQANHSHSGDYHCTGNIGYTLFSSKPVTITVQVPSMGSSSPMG
Experimental: as §1, §2

[3] = target: T3, His-tagged recombinant human FcγRIIIA (human, UniProt P08637 17-208)
T3 construct: Captured on a CM5 chip by the Biacore HIS capture kit; also called human FCγRIIIA (CD16a); not shown: His tag
Experimental: as §1, §2

Measured: binding result

T1 sequence (P12314 16-288 limits assumed): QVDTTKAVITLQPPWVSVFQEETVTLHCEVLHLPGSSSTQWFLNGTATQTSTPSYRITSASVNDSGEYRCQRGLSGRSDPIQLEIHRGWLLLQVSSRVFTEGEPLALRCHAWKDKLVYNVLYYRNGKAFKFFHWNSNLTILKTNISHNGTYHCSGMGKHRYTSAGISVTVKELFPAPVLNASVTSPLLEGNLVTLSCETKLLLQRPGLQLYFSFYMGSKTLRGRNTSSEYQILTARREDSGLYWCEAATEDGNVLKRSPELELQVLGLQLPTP
T3 sequence (P08637 17-208 limits assumed): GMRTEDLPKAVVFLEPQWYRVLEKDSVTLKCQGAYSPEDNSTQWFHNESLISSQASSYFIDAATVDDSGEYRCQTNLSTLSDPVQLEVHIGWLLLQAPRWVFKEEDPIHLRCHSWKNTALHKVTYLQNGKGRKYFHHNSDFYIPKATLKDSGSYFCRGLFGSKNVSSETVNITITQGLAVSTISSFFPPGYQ

B1: 501c.S8D4 (antibody, human IgG1, kappa, L234A L235A)
heavy: not shown
light: DIQMTQSPSSVSASVGDRVTITCKASQIVGSNVAWYQQKPGKAPEPLIYSASYLYSGVPSRFSGSGSGTDFTLTISSLQPEDFATYYCQQYSSHPLTFGQGTKLEIKRTVAAPSVFIFPPSDEQLKSGTASVVCLLNNFYPREAKVQWKVDNALQSGNSQESVTEQDSKDSTYSLSSTLTLSKADYEKHKVYACEVTHQGLSSPVTKSFNRGEC
modifications: SYNtecan E (HydraSpace-PEG2-HydraSpace-Val-Ala-PABC linker, exatecan payload) conjugated at the 6-azido-GalNAc residue of the N-glycan of N297 (EU numbering); drug-to-antibody ratio 4
no binding: all assays above

B2: 501b.S8D4 (antibody, human IgG1, kappa, L234A L235A)
heavy: QVQLQESGPGLVKPSQTLSLTCTVSGYSITSGYSWHWIRQHPGKGLEWIGSIRYSGGTDYNPSLKSLVTISADTSKNQFSLKLSSVTAADTAVYYCARMTTAPWYPFDYWGQGTTVTVSSASTKGPSVFPLAPSSKSTSGGTAALGCLVKDYFPEPVTVSWNSGALTSGVHTFPAVLQSSGLYSLSSVVTVPSSSLGTQTYICNVNHKPSNTKVDKKVEPKSCDKTHTCPPCPAPEAAGGPSVFLFPPKPKDTLYITREPEVTCVVVDVSHEDPEVKFNWYVDGVEVHNAKTKPREEQYNSTYRVVSVLTVLHQDWLNGKEYKCKVSNKALPAPIEKTISKAKGQPREPQVYTLPPSRDELTKNQVSLTCLVKGFYPSDIAVEWESNGQPENNYKTTPPVLDSDGSFFLYSKLTVDKSRWQQGNVFSCSVMHEALHNHYTQKSLSLSPGK
light: DIQMTQSPSSVSASVGDRVTITCKASQIVGSNVAWYQQKPGKAPEPLIYSASYLYSGVPSRFSGSGSGTDFTLTISSLQPEDFATYYCQQYSSHPLTFGQGTKLEIKRTVAAPSVFIFPPSDEQLKSGTASVVCLLNNFYPREAKVQWKVDNALQSGNSQESVTEQDSKDSTYSLSSTLTLSKADYEKHKVYACEVTHQGLSSPVTKSFNRGEC
modifications: SYNtecan E (HydraSpace-PEG2-HydraSpace-Val-Ala-PABC linker, exatecan payload) conjugated at the 6-azido-GalNAc residue of the N-glycan of N297 (EU numbering); drug-to-antibody ratio 4
no binding: all assays above
